Measurements reported in US20200040059A1.
Values joined by “and” are separate entries in the source; they are usually repeats but may differ in a detail not shown here. Equal entries are not always repeated.

What was measured:
[1] = target: human CD28, full length, on transfected HEK293 cells (human) (UniProt P10747); assay: flow cytometry, Fc fusion at 66.6 nM on HEK293 cells transfected with CD28
[2] = target: human PD-L1, full length, on transfected HEK293 cells (human) (UniProt Q9NZQ7); assay: flow cytometry, Fc fusion at 22.2 nM on HEK293 cells transfected with PD-L1
[3] = target: CD112R, expressed on transfected cells (human) (UniProt Q6DKI7); assay: flow cytometry on transfected cells
[4] = target: CD96, expressed on transfected cells (UniProt P40200); assay: flow cytometry on transfected cells
[5] = target: T1, human CD226, full length, expressed on transfected cells (human) (UniProt Q15762); assay: flow cytometry on transfected cells
T1 sequence: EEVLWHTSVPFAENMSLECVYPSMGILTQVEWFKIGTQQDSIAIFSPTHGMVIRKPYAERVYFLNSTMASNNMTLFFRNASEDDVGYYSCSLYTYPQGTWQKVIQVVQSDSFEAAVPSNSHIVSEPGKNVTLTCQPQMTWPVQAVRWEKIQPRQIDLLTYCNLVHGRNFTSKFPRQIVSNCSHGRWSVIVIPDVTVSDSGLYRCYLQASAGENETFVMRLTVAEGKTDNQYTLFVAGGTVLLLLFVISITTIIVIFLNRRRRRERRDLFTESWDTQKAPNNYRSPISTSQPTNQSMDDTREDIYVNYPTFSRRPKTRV

[6] = target: T2, human TIGIT, full length, expressed on transfected cells (human) (UniProt Q495A1); assay: flow cytometry on transfected cells
T2 sequence: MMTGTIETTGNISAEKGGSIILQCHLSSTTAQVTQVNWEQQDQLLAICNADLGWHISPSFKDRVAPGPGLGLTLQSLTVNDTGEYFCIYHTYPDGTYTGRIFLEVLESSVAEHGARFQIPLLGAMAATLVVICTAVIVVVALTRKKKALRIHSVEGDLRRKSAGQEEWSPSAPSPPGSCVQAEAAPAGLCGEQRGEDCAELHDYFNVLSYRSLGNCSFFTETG

CD112R (human) = CD112R (human) (UniProt Q6DKI7); assay: flow cytometry, cells expressing target, 25 nM
CD226 (human) = target: T3, CD226 (human) (UniProt Q15762); assay: flow cytometry, cells expressing target, 25 nM
T3 sequence: T1 sequence

CD96 = target: T4, CD96 (UniProt P40200); assay: flow cytometry, cells expressing target, 25 nM
T4 sequence (looked up): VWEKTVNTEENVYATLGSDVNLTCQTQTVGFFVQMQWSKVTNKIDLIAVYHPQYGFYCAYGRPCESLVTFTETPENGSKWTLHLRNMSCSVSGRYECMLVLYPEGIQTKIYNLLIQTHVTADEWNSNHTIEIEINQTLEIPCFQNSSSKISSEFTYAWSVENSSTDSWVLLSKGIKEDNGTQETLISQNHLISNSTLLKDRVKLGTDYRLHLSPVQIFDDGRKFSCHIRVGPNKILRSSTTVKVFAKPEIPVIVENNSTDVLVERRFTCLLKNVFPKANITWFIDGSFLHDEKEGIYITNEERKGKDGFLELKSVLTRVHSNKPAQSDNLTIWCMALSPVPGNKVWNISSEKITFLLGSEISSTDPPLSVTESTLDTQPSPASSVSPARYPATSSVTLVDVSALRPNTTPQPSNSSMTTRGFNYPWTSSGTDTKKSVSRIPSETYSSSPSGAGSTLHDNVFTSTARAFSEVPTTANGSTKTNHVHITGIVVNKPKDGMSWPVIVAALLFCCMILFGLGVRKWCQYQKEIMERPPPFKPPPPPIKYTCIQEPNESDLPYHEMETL

PD-L1 (human) = PD-L1 (human) (UniProt Q9NZQ7); assay: flow cytometry on HEK293 cells transfected with PD-L1
Chain of PD-L1 (human) (Q9NZQ7 19-290 limits assumed): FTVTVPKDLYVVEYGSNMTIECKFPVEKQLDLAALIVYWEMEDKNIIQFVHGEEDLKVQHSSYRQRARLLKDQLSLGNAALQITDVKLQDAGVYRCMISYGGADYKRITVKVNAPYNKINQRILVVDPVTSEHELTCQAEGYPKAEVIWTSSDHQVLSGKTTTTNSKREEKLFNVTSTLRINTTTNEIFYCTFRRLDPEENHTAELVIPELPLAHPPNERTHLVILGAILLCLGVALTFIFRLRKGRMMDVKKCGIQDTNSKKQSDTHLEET

Chain of CD112R (human) (Q6DKI7 whole entry): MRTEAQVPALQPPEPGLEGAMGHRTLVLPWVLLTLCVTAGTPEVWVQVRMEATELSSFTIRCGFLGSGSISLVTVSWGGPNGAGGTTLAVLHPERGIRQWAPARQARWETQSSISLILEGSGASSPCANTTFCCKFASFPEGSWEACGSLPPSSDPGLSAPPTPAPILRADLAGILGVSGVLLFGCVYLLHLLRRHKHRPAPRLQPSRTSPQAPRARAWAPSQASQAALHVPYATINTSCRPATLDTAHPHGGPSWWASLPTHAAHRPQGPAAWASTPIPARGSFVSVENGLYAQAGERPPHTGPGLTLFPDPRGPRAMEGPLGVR
Chain of CD112R, expressed on transfected cells (human) (Q6DKI7 whole entry): as above
Chain of human PD-L1, full length, on transfected HEK293 cells (human) (Q9NZQ7 19-290 limits assumed): as the sequence (Q9NZQ7 19-290 limits assumed) above

Row | MFI at 66.6 nM [1] | MFI at 22.2 nM [2] | MFI at 100 nM [3] | MFI at 100 nM [4] | MFI at 100 nM [5] | MFI at 100 nM [6] | Substance | also measured
1 | 3700 MFI | 1580 MFI | – | – | – | – | CD80 variant IgV-Fc E35G/K54E/A71D/L72P (from UniProt P33681 35-141) (Fc fusion) | –
2 | – | – | 1900 | 1800 | 2600 | 2660 | CD155 variant S52E IgV-Fc (from UniProt P15151 24-139) (Fc fusion) | –
3 | – | – | 1770 | 2450 | 5790 | 4810 | CD155 variant T45Q, S52Q IgV-Fc (from UniProt P15151 24-139) (Fc fusion) | –
4 | – | – | 1790 | 2340 | 2080 | 4090 | CD155 variant T45Q, S52R, G111R IgV-Fc (from UniProt P15151 24-139) (Fc fusion) | –
5 | 11200 MFI | 9350 MFI | – | – | – | – | CD80 variant IgV-Fc E35D/I67L/A71D (from UniProt P33681 35-141) (Fc fusion) | –
6 | – | – | – | – | – | – | CD155 variant IgV-Fc V9L, P18Y, V25A, V38G, M55V, A77T, L79P, M90I, F91S, L104M (from UniProt P15151 24-139) (Fc fusion) | MFI at 25 nM (CD112R (human)): 919 MFI; MFI at 25 nM (CD226 (human)): 26000 MFI; MFI at 25 nM (CD96): 18000 MFI
7 | – | – | 1820 | 1700 | 2450 | 4840 | CD155 variant S42G IgV-Fc (from UniProt P15151 24-139) (Fc fusion) | –
8 | 8150 MFI | 1400 MFI | – | – | – | – | CD80 variant IgV-Fc V22L/E35G/A71D/L72P (from UniProt P33681 35-141) (Fc fusion) | –
9 | – | – | 1730 | 2360 | 3170 | 2970 | CD155 variant S52R, Q62F, L104Q, G111R IgV-Fc (from UniProt P15151 24-139) (Fc fusion) | –
10 | – | – | 2330 | 2560 | 2130 | 2430 | CD155 variant S42W IgV-Fc (from UniProt P15151 24-139) (Fc fusion) | –
11 | – | – | 2710 | 2760 | 2570 | 2210 | CD155 variant Q62F IgV-Fc (from UniProt P15151 24-139) (Fc fusion) | –
12 | – | – | 1790 | 1820 | 2020 | 2290 | CD155 variant S52Q IgV-Fc (from UniProt P15151 24-139) (Fc fusion) | –
13 | – | – | 2120 | 1540 | 3790 | 10300 | CD155 variant L104Q IgV-Fc (from UniProt P15151 24-139) (Fc fusion) | –
14 | – | – | – | 1830 | 2210 | 4320 | CD155 variant S52L, L104E IgV-Fc (from UniProt P15151 24-139) (Fc fusion) | –
15 | – | – | – | – | – | – | CD80 IgV-Fc Q27H/M43I/A71D/R73S (from UniProt P33681 35-141) (Fc fusion) | MFI at 22.2 nM (PD-L1 (human)): 8240 MFI
16 | 15000 MFI | 13800 MFI | – | – | – | – | CD80 variant IgV-Fc E35D/A71D (IgV SEQ ID NO:622) (from UniProt P33681 35-141) (Fc fusion) | –
17 | 8860 MFI | 1080 MFI | – | – | – | – | CD80 variant IgV-Fc H18Y/A71D/L72P/E88V (from UniProt P33681 35-141) (Fc fusion) | –
18 | – | – | 1500 | 1530 | 5940 | 2860 | CD155 variant T45Q, S52L, V57L, L104E IgV-Fc (from UniProt P15151 24-139) (Fc fusion) | –
19 | 15100 MFI | 9710 MFI | – | – | – | – | CD80 variant IgV-Fc V20I/M47V/A71D (from UniProt P33681 35-141) (Fc fusion) | –

Row | MFI at 66.6 nM [1] | MFI at 22.2 nM [2] | MFI at 100 nM [3] | MFI at 100 nM [4] | MFI at 100 nM [5] | MFI at 100 nM [6] | Substance | also measured
20 | 3450 MFI | 25500 MFI | – | – | – | – | CD80 variant IgV-Fc E35D (from UniProt P33681 35-141) (Fc fusion) | –
21 | 6370 MFI | 27300 MFI | – | – | – | – | CD80 variant IgV-Fc E35D/M43I/A71D (from UniProt P33681 35-141) (Fc fusion) | –
22 | – | – | 1860 | 1740 | 2150 | 2400 | CD155 variant S42N, S52Q, Q62F IgV-Fc (from UniProt P15151 24-139) (Fc fusion) | –
23 | – | – | – | – | – | – | CD155 variant IgV-Fc P18S, P34S, E51V, L79P, F91S, G111R (from UniProt P15151 24-139) (Fc fusion) | MFI at 25 nM (CD112R (human)): 853 MFI; MFI at 25 nM (CD226 (human)): 769 MFI; MFI at 25 nM (CD96): 892 MFI
24 | – | – | – | – | – | – | CD155 variant IgV-Fc T15I, P18S, V33M, N35F, T39S, M55L, R78S, L79P, F91S, T107M (from UniProt P15151 24-139) (Fc fusion) | MFI at 25 nM (CD112R (human)): 789 MFI; MFI at 25 nM (CD226 (human)): 1020 MFI; MFI at 25 nM (CD96): 2710 MFI
25 | 6310 MFI | 8420 MFI | – | – | – | – | CD80 variant IgV-Fc A71D/L72V/E95K (from UniProt P33681 35-141) (Fc fusion) | –
26 | – | – | – | – | – | – | CD155 variant IgV-Fc V9I, P18S, S24P, H49Q, F58Y, Q60R, Q62K, L79P, F91S, T107M (from UniProt P15151 24-139) (Fc fusion) | MFI at 25 nM (CD112R (human)): 1030 MFI; MFI at 25 nM (CD226 (human)): 1090 MFI; MFI at 25 nM (CD96): 43900 MFI
27 | – | – | 1800 | 1560 | 2260 | 3140 | CD155 variant L104E IgV-Fc (from UniProt P15151 24-139) (Fc fusion) | –
28 | – | – | 2740 | 4850 | – | 4400 | CD155 variant S52R IgV-Fc (from UniProt P15151 24-139) (Fc fusion) | –
29 | – | – | – | – | – | – | CD80 IgV-Fc I30V/T57I/L70P/A71D/A91T (from UniProt P33681 35-141) (Fc fusion) | MFI at 22.2 nM (PD-L1 (human)): 5890 MFI
30 | 2450 MFI | 18900 MFI | – | – | – | – | CD80 variant IgV-Fc Y31H/E35D/T41S/V68L/K93R/R94W (from UniProt P33681 35-141) (Fc fusion) | –
31 | 16800 MFI | 22800 MFI | – | – | – | – | CD80 variant IgV-Fc D46E/A71D (from UniProt P33681 35-141) (Fc fusion) | –
32 | 7410 MFI | 1220 MFI | – | – | – | – | CD80 variant IgV-Fc A12T/E24D/E35D/D46V/I61V/L72P/E95V (from UniProt P33681 35-141) (Fc fusion) | –
33 | – | – | – | – | 1890 | 2260 | CD155 variant S42A, S52L, L104E, G111R IgV-Fc (from UniProt P15151 24-139) (Fc fusion) | –
34 | 16700 MFI | 1870 MFI | – | – | – | – | CD80 variant IgV-Fc T13R/M42V/M47I/A71D (from UniProt P33681 35-141) (Fc fusion) | –
35 | – | – | – | – | – | – | CD155 variant IgV-Fc P18S, W46R, E68D, L79P, F91S, T107M, R113G (from UniProt P15151 24-139) (Fc fusion) | MFI at 25 nM (CD112R (human)): 798 MFI; MFI at 25 nM (CD226 (human)): 717 MFI; MFI at 25 nM (CD96): 737 MFI
36 | – | – | – | – | – | – | CD155 variant IgV-Fc P18S, L21M, Y30F, N35D, R84W, F91S, T107M, D116G (from UniProt P15151 24-139) (Fc fusion) | MFI at 25 nM (CD112R (human)): 946 MFI; MFI at 25 nM (CD226 (human)): 743 MFI; MFI at 25 nM (CD96): 1030 MFI
37 | – | – | – | – | – | – | CD155 variant IgV-Fc V11A, P18T, N35S, L79P, S87T, F91S (from UniProt P15151 24-139) (Fc fusion) | MFI at 25 nM (CD112R (human)): 1270 MFI; MFI at 25 nM (CD226 (human)): 274000 MFI; MFI at 25 nM (CD96): 69900 MFI
38 | – | – | – | – | – | – | CD155 variant IgV-Fc P18S, S42T, E51G, L79P, F91S, G92W, T107M (from UniProt P15151 24-139) (Fc fusion) | MFI at 25 nM (CD112R (human)): 857 MFI and 935 MFI; MFI at 25 nM (CD226 (human)): 707 MFI and 851 MFI; MFI at 25 nM (CD96): 1050 MFI and 924 MFI
